Here are results for five molecules from article PMC4755285 (Journal of biomolecular screening, 2015).

Where two headings read alike, the source gives them in different places. Ends that are not written are not given here.

What all share (assay): fluorescence polarisation
(In general: In fluorescence polarisation assays a small probe gives low polarisation when free and higher when bound to something large.)

In test [1] the target is FITC labeled HCN2 peptide (C-terminal 11 amino acids of HCN2).
Test [2] deals with FITC labeled HCN1 peptide (C-terminal 11 amino acids of HCN1).
Test [3] deals with FITC labeled HCN3 peptide (C-terminal 11 amino acids of HCN3).
Test [4] addresses FITC labeled HCN4 peptide (C-terminal 11 amino acids of HCN4).
The target of test [5] is TRIP8b(241-602).
The target in test [6] is T1, His tagged full length TRIP8b (1b-2) isoform.
T1 chain: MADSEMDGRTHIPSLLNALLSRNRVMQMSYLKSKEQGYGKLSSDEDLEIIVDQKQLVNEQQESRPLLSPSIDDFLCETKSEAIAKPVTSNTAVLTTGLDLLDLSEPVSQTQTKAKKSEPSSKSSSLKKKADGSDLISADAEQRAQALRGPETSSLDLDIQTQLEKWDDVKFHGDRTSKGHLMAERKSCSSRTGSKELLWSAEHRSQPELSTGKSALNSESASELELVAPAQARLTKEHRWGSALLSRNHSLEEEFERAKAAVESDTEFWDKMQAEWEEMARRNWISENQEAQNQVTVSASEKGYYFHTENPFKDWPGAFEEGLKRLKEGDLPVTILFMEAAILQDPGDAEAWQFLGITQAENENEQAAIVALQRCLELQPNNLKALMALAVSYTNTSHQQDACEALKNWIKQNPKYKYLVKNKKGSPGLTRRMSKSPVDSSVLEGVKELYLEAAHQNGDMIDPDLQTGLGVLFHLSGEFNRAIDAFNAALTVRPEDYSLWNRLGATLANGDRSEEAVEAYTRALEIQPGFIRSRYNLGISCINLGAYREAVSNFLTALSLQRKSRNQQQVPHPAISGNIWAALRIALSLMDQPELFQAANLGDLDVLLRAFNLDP

The target of test [7] is TRIP8b(241-602). This is another data set of the same source.
Test [8] has as its target TRIP8b(241-602). This is another data set of the same source.
The target in test [9] is TRIP8b(241-602). This is another data set of the same source.

With TRIP8b(241-602) (domain or fragment), the dissociation constant Kd (commonly the constant that tells how readily two partners part at equilibrium) in test [1] was found to be 910 nM; in test [2] it was 1230 nM; in test [3] it was 10.2 µM; in test [4], 810 nM. In test [2], the fluorescence polarisation without competitor (mP) is 224 mP.

On to DSARSRLSSNL [unlabeled HCN2 peptide], for which the half-inhibitory concentration (IC50) (in general, the concentration that inhibits the measured activity by half) with TRIP8b(241-602) [5] worked out at 760 nM.

For the molecule DAEKPRFASNL (also: FITC label, position not given here) [FITC labeled HCN1 peptide (C-terminal 11 amino acids of HCN1)], the Kd in [6] was 1030 ± 20 nM; in the test with TRIP8b(241-602) [5] it was 800 nM.

Take DAEKPRFASNL [unlabeled HCN1 peptide]: the IC50 worked out at 890 nM with TRIP8b(241-602) [7], 700 nM in the test with TRIP8b(241-602) [5], 1600 nM in the test with TRIP8b(241-602) [8] and 1770 nM with TRIP8b(241-602) [9].

As for EPVRSKLPSNL [unlabeled HCN4 peptide], the IC50 with TRIP8b(241-602) [5] was 1930 nM.
